The results in this text go back to the DeepSol protein solubility set.

This data set in a line: soluble on expression in E. coli; label from the status in PepcDB or PDB records.
As to “MAHHHHHHMNIFKYYNIYLPLSVLGFVHIEVKSNNDVLNNSLSSISFNNYIFGRILSTNESADVVVEKPMEEKLNNTNENIDETHEESDPSNSTEETVKKCISNILDMTCDSRGHALILANNILRSQNVNEEVIILNEHDLLSQFLNGDVSNIFSDNKSIFKDLLDKDICSTYEVNFDQNSKCTLLTNKNDLQISEDILLLGNESEETNKLLDLWKRVMKNEESKLYLLKRNLYQQHLKLRNRSRLSHDKLNNILNECNVLVKKYNNNYDKTINNIFKEWSTVTPHNIFEFKLFIKACRLTWRKSIKNLHAEYTELLKRSFN”, the “soluble on expression in E. coli” value was “not soluble”.
Under “MHMVTYPCLTSRRFQLALIHRRVVDKRTSMHSRTASESTGARIHRPWCARHQVRPAWRCQYDKLHRVPFRSPELRLDSGPGYTTGSYRYMAGDPLEHHHHHH” stands “not soluble”; under “MAWYEGAFFYQIFPDRFFRAGPPGRPAPAGPFEPWEAPPTLRGFKGGTLWGVAEKLPYLLDLGVEAIYLNPVFASTANHRYHTVDYFQVDPILGGNEALRHLLEVAHAHGVRVILDGVFNHTGRGFFAFQHLMENGEQSPYRDWYHVKGFPLKAYTAHPNYEAWWGNPELPKLKVETPAVREYLLAVAEHWIRFGVDGWRLDVPNEIPDPTFWREFRQRVKGANPEAYIVGEIWEEADFWLQGDMFDAVMNYPLARAVLGFVGGEALDRDLAAQTGLGRIEPLQALAFSHRLEDLFGRYRPEVVRAQMNLLTSHDTPRLLSLMRGSVERARLALALLFLLPGNPTVYYGEEVGMAGGKDPENRGGMVWEEARWQKDLRETVKRLARLRKEHPALRTAPYLRIYAQDGHLAFARGPYLAVVNASPHPFRQDFPLHGVFPRGGRAVDLLSGEVCTPQGGRLCGPVLPPFSLALWREA”, “soluble”.
The entry for “QMTLTELRAFLDQMNNLPCAMHQIGDVKGVLEQVEAYQAEAREALASLPSSPGLLQSLLERGRQLGVEVPEAQQLQRQVEQARWLDEVKRTLAPSARRGTLAVMRGLLVAGASVAPSPAVDKAQAELQELLTIAERWEEKAHLCLEARQKHPPATLEAIIREAENIPVHLPNIQALKEALAKARAWIADVDEIQNGDHYPCLDDLEGLVAVGRDLPVGLEELRQLELQVLTAHSWREKASKTFLKKNS” is “not soluble”; for “SGLVPRGSHMRLRPLGIEGVWEITPEQRADPRGVFLDWYHVDRFAEAIGRPLRLAQANLSVSVRGVVRGIHFVDVPPGQAKYVTCVRGAVFDVVVDLRVGSPTYGCWEGTRLDDVSRRAVYLSEGIGHGFCAISDEATLCYLSSGTYDPATEHGVHPLDPELAIDWPTGTPLLSPRDQDALLLAEARDAGLLPTYATCQAVTVPSPAPGSVGDPGP” it is “soluble”; for “MDRKGFLKSTMIATGSLLLGGAGICRFLNDKEPADGPFPRTIEKIHCGNMKKVLVIMSAGTKLGNTDRLTDAYIKGLVERGHSVTKVYLGSMRIEGCRGCGVCQRLAHQCAVRDGMQDIYPLFAECDTVVMASPLYFWTITSQLKAFIDRLYAISADDKYPQKDTVLLMTAGDDNENTFDQPKQYFRLLSQALGWNEVGIYCAGGCTGCEKLARQIDKVHLENVYKMGLEL” it is “not soluble”.
The entry for “MGSDKIHHHHHHMSHVSLKDVQVLAPNFKRRLSGVTSTIVQLIPVQNRLGQKVGTIGPGLPPHLPHVRFRDLWRLWQNGPSGGPRIWHARRNLEMLPGIFMRDVLRMKVKLLFTSAAQRRHSAYTRFLISKMDAVVATSTRSGSFLEVPHRVVMHGVDTELFHPATGPEDTIAATGLPGHYLLGCFGRVRHQKGTDLFVRAMIELLPHYPQWTAVVSGRVTAEHKAFGDTLKADVAAAGLTDRIIFQGEVDDIKPWYRRLTLYVAPSRNEGFGLTPLEAMASETAVVASNAGAYEEMIVTGETGWVVGAGDYASLRDAIKTYLADPALAKAHASAGLAHVRSTFPLEKEATCLGEVYEALQRG” is “not soluble”; for “MINSVITQMAEELRKASKVALFSHVSPDGDCIGSMLGIGLALEALGKEVAMFNPDPIPRNLSFLPGVDKITQSMPDPLPETLLFVDCADLQRVQLQREDLPADAVILNLDHHISNQNFGRINWVDSQAAASGELAYALVRRLNVELTQEIAANFYTALLTDTGSFKYANTTAKTHQIAGELMETGISLGDIHHFVFDQTPMVKLELLRRGLNQLQFFAEGQLGMMTLRKQDFEESGAEESLSEGLIDHARTVEGVEVAVLLKEVKPDVVRVSLRSNRWFDVNRIADGFGGGGHQRAAGCTLHLSLEEAKQKVRQIIEEELKLGRSHLEHHHHHH” it is “soluble”; for “MNEFDRVRDYLTDLQDRICAAVEAIDGKARFAEDLWQRAEGGGGRTRILRDGAVFEQAGIGFSDVSGARLPPSASAHRPELAGATWRACGVSLVFHPHNPHIPTTHANVRYFRAERDGEMVAAWFGGGFDLTPFYPVDEDVMHWHRTAQALCAPFGEERYAAHKRWCDEYFFLRHRNETRGVGGLFFDDLGQDFERDFAYQRAVGDGFLDAYLPIVERRKDTPYGEAERAFQLYRRGRYVEFNLVYDRGTLFGLQSGGRAESILMSLPPQVRWEYGFQPQPGSAEARLADYLIPRDWLGLEHHHHHH” it is “soluble”.
With “MGSDKIHHHHHHDSFKTKSGKELTITFIKHGSLMLTYDNHSIQVDPVSEYADYTTFPKADIILITHEHGDHLDPKAIQAVEKSDTEIIANENSQKKLGKGKVLKNGDTDTSISYMKIEAVPAYNTTPGRDKYHPRHRDNGYILTFDGLRVYIAGDTEDIPEMKDLKDIDIAFLPVNQPYTMTVSQAAKAARMFSPKILYPYHYGDTKIGELKDALKDSGIDVRIRELQ”, the “soluble on expression in E. coli” value was “not soluble”.
For “MAHHHHHHMLQSPKGINILITGTPGTGKTSLAELLAQELGDFKHVEVGKIVKENHFYSEYDNALDTHIVEEDDEDRLLDFMEPMMVNEGNHVVDYHSSELFPRRWFHLVIVLRASTEVLFERLTARRYSEQKRDENMEAEIQGLCEEEARGAYDDSIVIVRENNTLEEMAATVDLIRLRVESLRGNAA”, the “soluble on expression in E. coli” value is “not soluble”.
As for “MDALVSTKANSIAYQRSTVIIPAYNEEKRLMPVLYELCEYIRSNSLEWKVMVSIDGDDGTESNVKIMMQEYSFLSYSKGKGRGGKGAAIKRAITSATGEFVILMDADGSVPLKEIVKALDLTNYYDLIIFDRYSNRGNRIPFIRRFPSRGFNKLVRIFLGLKINDTQCGYKIIKREYAQRAFNKITISNAFFDVALLYYLKKERAKYIEIPVEYNYDRNSKFHVVELVLGEGISLIAFRIRNSRFYKYVPEKLISLYYRKFRWILEHHHHHH”, the “soluble on expression in E. coli” value is “soluble”.
The entry for “MDRFDAMRAFARVVETGSFTKAADTLHMSKTSVTQLVQQLEARLRVRLLNRTTRKVNATADGAAYYERVRQLLADLEDAETSLSGASATPGGRLRVDVPSPFASTILVPALPAFQARYPDILLHLGVSDREVDLIDENVDCVIRGGQIGNLSLAARHVGDLQLGVYASPGYLARAGVPAHPRELQDAQHRIIGFSWSRARRLFPCAMRRRADERIEVAGRHALLLDEGNAYLAAGLAAMGVIGVPTYMAEAHVERGALIRLFGDWRLDPMPLYIAYPQNRHVSAKLRVFIDWIVELMARHAPVTDAPPPHRSARMPGGPAAIPTDITGA” is “not soluble”.
Under “MSFKDLRSFIDHLEANGELKRISYPVDPHLEMTEIADRVLRAQGPALLFENPTNHSMPVLANLFGTPKRVAMALGKDDPLALREVGELLAFLKEPEPPRGFKDAISKIPMFKQALNMPPKTVRNPACQQVVKTGDDVDLTQLPIQHCWPGDVAPLVTWGLTITKGPRKSRQNLGIYRQQLLGKNKLIMRWLSHRGGALDFADFKEQFPGERYPVVVALGSDPVTILGAVTPVPDAMSEYAFAGLLRGERTEVCKALSCDLEVPASSEIILEGYIDPNEMAEEGPYGDHTGYYNETDKFPVFTVTHITHRKDPIYHSTYTGRPPDEPAMLGVALNEVFVPILRKQYPEIIDFYLPPEGCSYRMAVISIRKQYPGHAKRVMMGAWSFLRQFMYTKFIVVVDDDVNCRDWNDVIWAITTRMDPKRDTVMIDNTPIDYLDFASPVVGLGSKMGLDATNKWEGETNREWGTPIVMDPKVKQKIDSIWDELGIS” stands “soluble”; under “GPGSMADEEDYDFEVNKKETDKIERPERLIEVLQHDTNQTLTEEMVEHAQAVLDFMPVEYTYKDVAAKLKCRLDGAYGGTWHVIVGKHFGANVTNDDDTLINMKINGVYFLAMRSGPPERPQESAENEAVTAE”, “soluble”.
The entry for “SLSSLDAVLSQDLIVADGPAVEVGDSLEVAYTGWLFQNHVLGQVFDSTANKDKLLRLKLGSGKVIKGWEDGMLGMKKGGKRLLIVPPACAVGSEGVIGWTQATDSILVFEVEVRRVKFAR” is “soluble”.
Turning to “MIRFLGNIEVRADAKGRVFIPATFRKQLQAASEERLIMRKDVFQDCLTLYPESVWNEELNELRSRLNKWNSKHQLIFRQFVSDVEVVTPDSNGRILIPKRYLQICNIRGDIRFIGIDNKIEIWAKERAEQPFMSPEEFGAALEEIMNDENRQDGER”, the “soluble on expression in E. coli” value was “not soluble”.
Under “MSINTANTPDGLGVLLYNGETIVIFAQGVVMTLGTSENENLEGRRTGTIYLTSHRIIFMPDPGDWLKSFEIPFNSMQDVNLNQPIFGANYLCGIASAVQGGQMRGEVKWRMTFNRGGCIEFGQSLLQAVERAVRMRPENAPPAYSPPIGDFYSAPPAYYQPSPDQGPNGFNPTTDSFPDQPNPSRVFMSSAPPPYPGIGPERGPHPTEELHVAGQFEAPPAYGSGETADGLRRRN” stands “not soluble”; under “MGSDKIHHHHHHMLDLGCGDGTLLHYLRDKLDIHGYGVEIDAHNILACMKNGINVIQNDLEAGLSEFEGESFDYVILSQTLQAMKNTEYIIREMLRVGKEGIVSFPNFGYWKNRIQVAGGHMPVSPTLPYQWYDTPNVHLCTLHDFEQLCQQHRVNILERRVMNNDKKVTFLPNLFGILAFYRFSHAA”, “not soluble”; under “MKYQVSLLAVKDIEVSKKFYKELFEQEIELDLGKNVTFKGGFAIQEDFAWLTGINPDTIIQKSNNMELYFEVDDFDEFIEKLNYYKDVEFVHKPLKHEWQQRVVRIYDPDKHIIEIGESMEVIARRYLSEGYSVEETSKIIQHPIEFVKQCENSKELEHHHHHH”, “soluble”.
The entry for “MAPPTPHLAVRGSDGTLLLHGPPNCQESSAFQRDDRQGRYMTFSNDGTLFAWCNGSQVTVLKVPSGDLVKSFDLPKTTALEFSPLNKVLATWQQYTKTQDNPQGEANLQLWDLQTGACMKAFYQKKMTGWCPSWADDESISVRNVNNELHFFENNNFETIANKLHLQKVSEFALSPGSQPSKVAVYVPGSKGAPSFVRLYQYPNFGGPTCALANKSFFKADKVNMLWNKKATAVLVTASTEVDKTGASYYGEQTLHYVATNGESAVVQLPKNGPIYDVSWSPNSTEFCVVYGFMPAKATVFNNKCESVFDFGTGPRNAAFYSPQGHILVLAGFGNLRGQMEVWDVKKYKQVSKPQAEDTTHFSWCPDGEHIVTATCSPRLRASNGYKIWHYTGTVLYKHETPSGKELWEVLWQPFPAGVFPERAVKYQALPSELGSTEAKPAQAYRPPALRNKPQTASSKLHEEEPPQNMKPGAAGEKQPSKAALKNQKRREAKKAAKQENKPDEAPPPAADPAPVSHVTSSCGDPETDKKIKNLKKKLKAIDELKEQQAAGKVMQKNQLEKMQKEAQLLKELEDLELGL” is “soluble”.
Under “MWRVVFDCEEAVRWLRQAKHTLESIRVDYEGGFYSWACFKANQAAEYSIKAVLRAAGLESFGHDLMALWRRARSLCQPLQEMEECIAVLNKLYLPPRYPDAWPGGAAPFENYTRRDAEEALECASRVYRAVEECLGEECEDS” stands “soluble”.
